# US20170183403A1 (UNIVERSIT T Z RICH, published 2017)
# T1: Reference peptide no. 2
# T1 construct: hIL-2 15-mer, first library, on microarray; also called peptide 2
# T1 peptide: SSSTKKTQLQLEHLL
# T2: Reference peptide no. 6
# T2 construct: hIL-2 15-mer, first library, on microarray; also called peptide 6
# T2 peptide: HLLLDLQMILNGINN
# T3: Reference peptide no. 9
# T3 construct: hIL-2 15-mer, first library, on microarray; also called peptide 9
# T3 peptide: LNGINNYKNPKLTRM
# T4: Reference peptide no. 12
# T4 construct: hIL-2 15-mer, first library, on microarray; also called peptide 12
# T4 peptide: PKLTRMLTFKFYMPK
# T5: Reference peptide no. 16
# T5 construct: hIL-2 15-mer, first library, parental Cys replaced by Ser, on microarray; also called peptide 16
# T5 peptide: MPKKATELKHLQSLE
# T6: Reference peptide no. 19
# T6 construct: hIL-2 15-mer, first library, parental Cys replaced by Ser, on microarray; also called peptide 19
# T6 peptide: HLQSLEEELKPLEEV
# T7: Reference peptide no. 28
# T7 construct: hIL-2 15-mer, first library, on microarray; also called peptide 28
# T7 peptide: PRDLISNINVIVLEL
# T8: Reference peptide no. 34
# T8 construct: hIL-2 15-mer, first library, parental Cys replaced by Ser, on microarray; also called peptide 34
# T8 peptide: ETTFMSEYADETATI
# T9: Reference peptide no. 36
# T9 construct: hIL-2 15-mer, first library, on microarray; also called peptide 36
# T9 peptide: EYADETATIVEFLNR
# T10: Reference peptide no. 37
# T10 construct: hIL-2 15-mer, first library, on microarray; also called peptide 37
# T10 peptide: DETATIVEFLNRWIT
# T11: Reference peptide no. 38
# T11 construct: hIL-2 15-mer, first library, parental Cys replaced by Ser, on microarray; also called peptide 38
# T11 peptide: ATIVEFLNRWITFSQ
# T12: Reference peptide no. 40
# T12 construct: hIL-2 15-mer, first library, parental Cys replaced by Ser, on microarray; also called peptide 40
# T12 peptide: LNRWITFSQSIISTL
# T13: Reference peptide no. 42
# T13 construct: second library: peptide 10 with F(62) to Ala; also called peptide 42
# T13 peptide: INNYKNPKLTRMLTA
# T14: Reference peptide no. 47
# T14 construct: second library: peptide 11 with Y(65) to Ala; also called peptide 47
# T14 peptide: YKNPKLTRMLTFKFA
# T15: Reference peptide no. 50
# T15 construct: second library: peptide 14 with Y(65) to Ala; also called peptide 50
# T15 peptide: LTFKFAMPKKATELK
# T16: Reference peptide no. 51
# T16 construct: second library: peptide 15 with Y(65) to Ala; also called peptide 51
# T16 peptide: KFAMPKKATELKHLQ
# T17: Reference peptide no. 52
# T17 construct: second library: peptide 11 with F(62) and Y(65) to Ala; also called peptide 52
# T17 peptide: YKNPKLTRMLTAKFA
# T18: Reference peptide no. 57
# T18 construct: second library: peptide 21 with L(92) to Ala; also called peptide 57
# T18 peptide: EELKPLEEVLNAAQS
# T19: Reference peptide no. 11
# T19 construct: hIL-2 15-mer, first library, on microarray; also called peptide 11
# T19 peptide: YKNPKLTRMLTFKFY
# T20: Reference peptide no. 13
# T20 construct: hIL-2 15-mer, first library, on microarray; also called peptide 13
# T20 peptide: TRMLTFKFYMPKKAT
# T21: Reference peptide no. 43
# T21 construct: second library: peptide 11 with F(62) to Ala; also called peptide 43
# T21 peptide: YKNPKLTRMLTAKFY
# T22: Reference peptide no. 45
# T22 construct: second library: peptide 13 with F(62) to Ala; also called peptide 45
# T22 peptide: TRMLTAKFYMPKKAT
# Tests used:
# Reference peptide no. 2 = target: T1, Reference peptide no. 2; assay: peptide microarray (RepliTope), 15-mers
# Description: (§1) Additional incubations are with unrelated antibodies from the same isotype (mouse control IgG2a/lambda and mouse control IgG2a/kappa), and secondary antibodies (anti-mouse IgG (Thermo 84545, label DL650) or anti-mouse IgG (JIR 115-175-072, Label Cy5)) to assess unspecific binding due to the detection antibody. The experiments are performed essentially as described in Maksimov P, et al. 2012, PLoS One 7:e34212. doi:10.1371/journal. pone. 0034212.
# (§2) The determination of peptide-antibody binding was performed by RepliTope-analysis where the peptide microarray (triplicate) was incubated with the primary antibody followed by a fluorescently labelled secondary antibody directed against the Fc-part of the primary one. All steps were performed on a TECAN microarray processing station enabling highly reliable and reproducible washing and incubation steps. After performing the incubation steps and subsequent to the final washing steps (to remove the unbound secondary antibodies) the microarrays were dried using a nitrogen stream and scanned in a high resolution microarray scanning system with appropriate wavelength settings. Control incubations were performed with an unrelated antibody having the same isotype to exclude false positive signals.
# (§3) The resulting images were analyzed und quantified using spot-recognition software GenePix (Molecular Devices). For each spot, the mean signal intensity was extracted (between 0 and 65535 arbitrary units). For further data evaluation, the MMC2 values were determined. The MMC2 equals the mean value of all three instances on the microarray. Except the coefficient of variation (CV)—standard-deviation divided by the mean value—is larger 0.5, in this case the mean of the two closest values (MC2) is assigned to MMC2.
# Reference peptide no. 6 = target: T2, Reference peptide no. 6; assay: peptide microarray (RepliTope), 15-mers
# Description: as §1, §2, §3
# Reference peptide no. 9 = target: T3, Reference peptide no. 9; assay: peptide microarray (RepliTope), 15-mers
# Description: as §1, §2, §3
# Reference peptide no. 12 [1] = target: T4, Reference peptide no. 12; assay: peptide microarray (RepliTope), 15-mers
# Description: as §1, §2, §3
# Reference peptide no. 16 = target: T5, Reference peptide no. 16; assay: peptide microarray (RepliTope), 15-mers
# Description: as §1, §2, §3
# Reference peptide no. 19 = target: T6, Reference peptide no. 19; assay: peptide microarray (RepliTope), 15-mers
# Description: as §1, §2, §3
# Reference peptide no. 28 = target: T7, Reference peptide no. 28; assay: peptide microarray (RepliTope), 15-mers
# Description: as §1, §2, §3
# Reference peptide no. 34 = target: T8, Reference peptide no. 34; assay: peptide microarray (RepliTope), 15-mers
# Description: as §1, §2, §3
# Reference peptide no. 36 = target: T9, Reference peptide no. 36; assay: peptide microarray (RepliTope), 15-mers
# Description: as §1, §2, §3
# Reference peptide no. 37 = target: T10, Reference peptide no. 37; assay: peptide microarray (RepliTope), 15-mers
# Description: as §1, §2, §3
# Reference peptide no. 38 = target: T11, Reference peptide no. 38; assay: peptide microarray (RepliTope), 15-mers
# Description: as §1, §2, §3
# Reference peptide no. 40 = target: T12, Reference peptide no. 40; assay: peptide microarray (RepliTope), 15-mers
# Description: as §1, §2, §3
# Reference peptide no. 42 [2] = target: T13, Reference peptide no. 42; assay: peptide microarray (RepliTope), 15-mers
# Description: as §1, §2, §3
# Reference peptide no. 47 [3] = target: T14, Reference peptide no. 47; assay: peptide microarray (RepliTope), 15-mers
# Description: as §1, §2, §3
# Reference peptide no. 50 = target: T15, Reference peptide no. 50; assay: peptide microarray (RepliTope), 15-mers
# Description: as §1, §2, §3
# Reference peptide no. 51 = target: T16, Reference peptide no. 51; assay: peptide microarray (RepliTope), 15-mers
# Description: as §1, §2, §3
# Reference peptide no. 52 = target: T17, Reference peptide no. 52; assay: peptide microarray (RepliTope), 15-mers
# Description: as §1, §2, §3
# Reference peptide no. 57 = target: T18, Reference peptide no. 57; assay: peptide microarray (RepliTope), 15-mers
# Description: as §1, §2, §3
# Reference peptide no. 11 = target: T19, Reference peptide no. 11; assay: peptide microarray (RepliTope), Ala mutagenesis set
# Reference peptide no. 12 [4] = target: T4, Reference peptide no. 12; assay: as above
# Reference peptide no. 13 = target: T20, Reference peptide no. 13; assay: as above
# Reference peptide no. 42 [5] = target: T13, Reference peptide no. 42; assay: as above
# Reference peptide no. 43 = target: T21, Reference peptide no. 43; assay: as above
# Reference peptide no. 45 = target: T22, Reference peptide no. 45; assay: as above
# Reference peptide no. 47 [6] = target: T14, Reference peptide no. 47; assay: as above
binder,measurement,setting,value
"NARA1 (antibody, mouse IgG2a, kappa, V domains shown, Mouse monoclonal from hybridoma; Isotype controls used were mouse IgG2a; also called anti-IL2 (NARA1) antibody; monoclonal antibody NARA1) VH: QVQLQQSGAELVRPGTSVKVSCKASGYAFTNYLIEWVKQRPGQGLEWIGVINPGSGGTNYNEKFKGKATLTADKSSSTAYMQLSSLTSDDSAVYFCARWRGDGYYAYFDVWGAGTTVTVSS VL: not shown",binding result,Reference peptide no. 2,no binding
same,binding result,Reference peptide no. 6,no binding
same,binding result,Reference peptide no. 9,no binding
same,binding result,Reference peptide no. 12 [1],no binding
same,binding result,Reference peptide no. 16,no binding
same,binding result,Reference peptide no. 19,no binding
same,binding result,Reference peptide no. 28,no binding
same,binding result,Reference peptide no. 34,no binding
same,binding result,Reference peptide no. 36,no binding
same,binding result,Reference peptide no. 37,no binding
same,binding result,Reference peptide no. 38,no binding
same,binding result,Reference peptide no. 40,no binding
same,binding result,Reference peptide no. 42 [2],no binding
same,binding result,Reference peptide no. 47 [3],no binding
same,binding result,Reference peptide no. 50,no binding
same,binding result,Reference peptide no. 51,no binding
same,binding result,Reference peptide no. 52,no binding
same,binding result,Reference peptide no. 57,no binding
same,signal intensity after subtraction of control signal,Reference peptide no. 11,1190 AU
same,signal intensity after subtraction of control signal,Reference peptide no. 12 [4],1130 AU
same,signal intensity after subtraction of control signal,Reference peptide no. 13,224 AU
same,signal intensity after subtraction of control signal,Reference peptide no. 42 [5],162 AU
same,signal intensity after subtraction of control signal,Reference peptide no. 43,507 AU
same,signal intensity after subtraction of control signal,Reference peptide no. 45,0 AU
same,signal intensity after subtraction of control signal,Reference peptide no. 47 [6],251 AU
